This note sets out measurements from patent US20120321614A1 (Amgen, published 2012).

What is called koff is the rate constant with which the complex falls apart. A higher koff goes with a short-lived complex. As a reminder, the Kd is the free concentration of one partner at which half of the binding sites on the other are occupied at equilibrium, for simple one-to-one binding. High values mean weaker binding, low ones tighter binding. What is called IC50 is the midpoint of a concentration-inhibition curve.

Residue numbers refer to the chain shown, from its start. Names may count otherwise.

First the molecules themselves.
B1: anti-c-Met monoclonal antibody 9.1.2 (antibody, V domains shown)
VH: QVQLQESGPGLVKPSQTLSLTCTVSGGSISSGGYYWSWIRQHPGKGLEWIGYIYYSGSTYYNPSLKSRVTISVDTSKNQFSLKLSSVTAADTAVYYCARDGPLGYCSSTSCPVTGEYYYYGMDVWGQGTTVTVSS
VL: EIVLTQSPGTLSLSPGERATLSCRASQSVSNNYLAWYQQKPGQAPRLLIFGASSRATGIPDRFSGSGSGTDFTLTISRLEPEDFAVYYCQQYDISPMYSFGQGTKLEMKR
notes: Human IgG2 kappa; also called hybridoma 9.1.2 (LN 15884); PTA-5027
B2: anti-c-Met monoclonal antibody 8.70.2 (antibody, V domains shown)
VH: QLQLQESGPGLVKPSETLSLTCTVSGGSISSSSYYGGWIRQPPGKGLDWIGSIYYSGNTYYNPSLKSRVTISVDTSKNQFSLKLSSVTAADTAVYYCARHSWDYFDYWDQGTLVTVSS
VL: DIQMTQSPSSVSASVGDRVTITCRASQGISSWLAWYQQKPGKAPKLLIYAASSLQSGVPSRFSGSGSGTDFTLTISSLQSEDFATYYCQQANSFPITFGPGTKVEIKR
notes: Human IgG2 kappa; also called hybridoma 8.70.2 (LN 15885); PTA-5028
B3: anti-c-Met monoclonal antibody 13.3.2 (antibody, human IgG2, kappa, V domains shown)
VH: QVQLVQSGAEVKKPGASVKVSCEASGYTFTSYGFSWVRQAPGQGLEWMGWISASNGNTYYAQKLQGRVTMTTDTSTSSAYMELRSLRSDDTAVYYCARVYADYADYWGQGTLVTVSS
VL: B2 VL with S30N, S31T, Q55K, T69A, S80P, I96L, P100G
notes: Human IgG2 kappa from XenoMouse hybridoma; The variable positions X2, X4, X6, X8 correspond to positions 42, 97, 14 (heavy) and 91 (light), where position one is the N-terminal amino acid; these numbers may not count on the entry with its leader; also called PTA-5026
B4: anti-c-Met monoclonal antibody 8.90.3 (antibody, V domains shown)
VH: EVQLVESGGGLVQPGGSLRLSCAASGFTFSRYSMNWVRQAPGKGLEWVSYISSRSSTIYYADSVKGRFTMSRDNAKNSLYMQMNSLRDEDTAVYYCGYGDYDYFDYWGQGTLVTVSS
VL: B2 VL with T20I, Q55K, L73V, S80P, A91S, F94L, I96W, P100Q
notes: Human IgG2 kappa
B5: anti-c-Met monoclonal antibody 13.3.2L-A91T, H-E42K, S97T (antibody, human IgG2, kappa, V domains shown)
VH: B3 VH with E23K, S78T
VL: B2 VL with S30N, S31T, Q55K, S80P, I96L, P100G
notes: positions 42, 97, 14 and 91 count from the N-terminal amino acid and may not count on the entry with its leader

T1 sequence (P08581 25-932): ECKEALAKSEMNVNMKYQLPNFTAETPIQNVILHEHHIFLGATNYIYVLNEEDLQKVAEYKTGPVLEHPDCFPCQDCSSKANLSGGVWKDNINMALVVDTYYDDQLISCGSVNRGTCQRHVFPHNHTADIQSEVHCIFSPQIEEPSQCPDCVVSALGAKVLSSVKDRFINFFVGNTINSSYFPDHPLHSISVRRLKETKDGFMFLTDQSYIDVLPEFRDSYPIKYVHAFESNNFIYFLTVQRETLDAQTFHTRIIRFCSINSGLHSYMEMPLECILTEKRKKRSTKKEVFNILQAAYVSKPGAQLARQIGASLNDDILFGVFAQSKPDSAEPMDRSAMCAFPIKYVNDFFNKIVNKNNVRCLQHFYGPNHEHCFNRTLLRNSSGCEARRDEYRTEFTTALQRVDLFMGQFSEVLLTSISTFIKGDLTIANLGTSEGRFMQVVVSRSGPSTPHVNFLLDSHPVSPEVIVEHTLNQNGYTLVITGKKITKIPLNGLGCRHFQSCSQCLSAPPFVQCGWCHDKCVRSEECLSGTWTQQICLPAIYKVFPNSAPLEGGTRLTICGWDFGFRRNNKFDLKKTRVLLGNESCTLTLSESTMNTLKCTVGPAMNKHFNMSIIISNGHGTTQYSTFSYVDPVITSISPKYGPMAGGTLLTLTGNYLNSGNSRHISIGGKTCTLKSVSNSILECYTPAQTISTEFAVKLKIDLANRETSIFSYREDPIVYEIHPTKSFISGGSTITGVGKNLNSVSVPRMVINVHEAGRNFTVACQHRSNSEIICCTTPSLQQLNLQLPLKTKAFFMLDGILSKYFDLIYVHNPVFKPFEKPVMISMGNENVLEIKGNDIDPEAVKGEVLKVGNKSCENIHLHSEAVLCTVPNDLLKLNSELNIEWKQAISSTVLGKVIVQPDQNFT
T3 sequence (A0A2K5UM36 entry or part of it limits assumed): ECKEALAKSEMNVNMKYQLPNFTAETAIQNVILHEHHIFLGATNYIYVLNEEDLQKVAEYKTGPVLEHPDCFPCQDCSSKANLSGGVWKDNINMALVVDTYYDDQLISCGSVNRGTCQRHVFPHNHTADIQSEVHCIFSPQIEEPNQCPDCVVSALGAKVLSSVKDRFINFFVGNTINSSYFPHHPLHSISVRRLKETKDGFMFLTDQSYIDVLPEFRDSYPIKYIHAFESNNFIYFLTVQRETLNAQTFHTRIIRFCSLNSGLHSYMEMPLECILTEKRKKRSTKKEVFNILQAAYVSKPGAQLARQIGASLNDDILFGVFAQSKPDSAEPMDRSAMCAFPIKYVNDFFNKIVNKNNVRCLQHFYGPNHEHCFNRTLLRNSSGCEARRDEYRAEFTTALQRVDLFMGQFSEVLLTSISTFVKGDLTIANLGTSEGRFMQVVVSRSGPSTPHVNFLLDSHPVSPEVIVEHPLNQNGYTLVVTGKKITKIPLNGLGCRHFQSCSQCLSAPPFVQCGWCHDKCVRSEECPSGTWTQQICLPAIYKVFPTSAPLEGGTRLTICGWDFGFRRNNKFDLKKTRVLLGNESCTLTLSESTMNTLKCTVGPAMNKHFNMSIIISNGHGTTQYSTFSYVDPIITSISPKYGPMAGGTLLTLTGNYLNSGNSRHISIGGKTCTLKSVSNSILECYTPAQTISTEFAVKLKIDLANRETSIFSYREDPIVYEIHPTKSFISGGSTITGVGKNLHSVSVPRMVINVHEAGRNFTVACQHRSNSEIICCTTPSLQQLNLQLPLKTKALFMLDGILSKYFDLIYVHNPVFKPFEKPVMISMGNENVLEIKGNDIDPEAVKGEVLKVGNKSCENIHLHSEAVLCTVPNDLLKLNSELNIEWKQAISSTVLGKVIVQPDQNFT
T4 sequence (P08581 25-1390): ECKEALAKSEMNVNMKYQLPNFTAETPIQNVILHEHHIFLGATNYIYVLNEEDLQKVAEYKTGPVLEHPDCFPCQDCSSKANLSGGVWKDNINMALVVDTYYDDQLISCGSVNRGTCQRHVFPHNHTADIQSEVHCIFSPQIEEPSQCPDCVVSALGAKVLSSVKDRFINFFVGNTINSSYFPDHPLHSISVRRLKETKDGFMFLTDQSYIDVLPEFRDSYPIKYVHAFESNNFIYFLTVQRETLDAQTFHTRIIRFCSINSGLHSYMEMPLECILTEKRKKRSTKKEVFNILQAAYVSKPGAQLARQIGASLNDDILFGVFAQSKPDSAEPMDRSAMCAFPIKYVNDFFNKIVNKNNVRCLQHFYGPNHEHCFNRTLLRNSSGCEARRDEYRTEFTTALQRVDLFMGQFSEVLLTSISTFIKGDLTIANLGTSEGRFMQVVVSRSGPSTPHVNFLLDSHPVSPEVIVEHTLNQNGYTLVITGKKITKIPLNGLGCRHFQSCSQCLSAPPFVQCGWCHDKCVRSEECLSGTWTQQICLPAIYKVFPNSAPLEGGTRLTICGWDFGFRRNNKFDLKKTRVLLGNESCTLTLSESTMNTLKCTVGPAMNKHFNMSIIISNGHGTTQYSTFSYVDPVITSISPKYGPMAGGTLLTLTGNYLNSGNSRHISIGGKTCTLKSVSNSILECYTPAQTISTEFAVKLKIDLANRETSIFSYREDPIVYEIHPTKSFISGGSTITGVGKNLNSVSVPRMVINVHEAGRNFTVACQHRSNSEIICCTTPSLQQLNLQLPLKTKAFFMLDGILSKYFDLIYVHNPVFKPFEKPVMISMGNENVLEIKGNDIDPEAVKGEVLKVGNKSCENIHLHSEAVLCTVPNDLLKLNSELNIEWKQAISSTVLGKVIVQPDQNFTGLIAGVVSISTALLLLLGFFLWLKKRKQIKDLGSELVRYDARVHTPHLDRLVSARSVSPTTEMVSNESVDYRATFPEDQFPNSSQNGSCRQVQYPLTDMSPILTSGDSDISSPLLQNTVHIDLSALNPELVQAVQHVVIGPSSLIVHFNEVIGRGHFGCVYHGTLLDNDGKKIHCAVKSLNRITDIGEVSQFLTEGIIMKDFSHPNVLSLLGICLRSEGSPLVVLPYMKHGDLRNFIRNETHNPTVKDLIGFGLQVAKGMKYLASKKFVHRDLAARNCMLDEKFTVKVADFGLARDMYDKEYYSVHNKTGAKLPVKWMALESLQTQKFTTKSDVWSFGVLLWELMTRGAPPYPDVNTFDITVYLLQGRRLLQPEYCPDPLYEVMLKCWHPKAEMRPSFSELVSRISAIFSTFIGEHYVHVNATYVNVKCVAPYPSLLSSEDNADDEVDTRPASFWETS

The first assay addresses T1, c-Met ECD/Fc (R&D Systems #358 MT), human (human, UniProt P08581 25-932).
T1 construct: extracellular domain; Bought fusion protein; also called c-Met ECD-Fc (human); human Met ECD-Fc; not shown: Fc part of the bought fusion protein
In words: SPR (BIACORE 3000), human c-Met ECD-Fc immobilized, antibody injected. In general terms: Surface plasmon resonance follows binding to a sensor surface in real time, without labels.
As to B1, the koff stood at 6.8e-05 s⁻¹.

The molecule B2 came in with a koff of 6.1e-05 s⁻¹.

For the molecule B3, the koff was found to be 0.00015 s⁻¹.

In turn, B4 returned a koff of 0.00015 s⁻¹.

The molecule B5 yielded a koff of 0.00018 s⁻¹.

The target in a further assay is T2, c-Met expressed on the surface of cynomolgus kidney cells (cynomolgus, UniProt A0A2K5UM36 25-1381).
T2 construct: also called cynomologus c-Met expressed on the cell surface
T2 sequence (A0A2K5UM36 entry or part of it limits assumed): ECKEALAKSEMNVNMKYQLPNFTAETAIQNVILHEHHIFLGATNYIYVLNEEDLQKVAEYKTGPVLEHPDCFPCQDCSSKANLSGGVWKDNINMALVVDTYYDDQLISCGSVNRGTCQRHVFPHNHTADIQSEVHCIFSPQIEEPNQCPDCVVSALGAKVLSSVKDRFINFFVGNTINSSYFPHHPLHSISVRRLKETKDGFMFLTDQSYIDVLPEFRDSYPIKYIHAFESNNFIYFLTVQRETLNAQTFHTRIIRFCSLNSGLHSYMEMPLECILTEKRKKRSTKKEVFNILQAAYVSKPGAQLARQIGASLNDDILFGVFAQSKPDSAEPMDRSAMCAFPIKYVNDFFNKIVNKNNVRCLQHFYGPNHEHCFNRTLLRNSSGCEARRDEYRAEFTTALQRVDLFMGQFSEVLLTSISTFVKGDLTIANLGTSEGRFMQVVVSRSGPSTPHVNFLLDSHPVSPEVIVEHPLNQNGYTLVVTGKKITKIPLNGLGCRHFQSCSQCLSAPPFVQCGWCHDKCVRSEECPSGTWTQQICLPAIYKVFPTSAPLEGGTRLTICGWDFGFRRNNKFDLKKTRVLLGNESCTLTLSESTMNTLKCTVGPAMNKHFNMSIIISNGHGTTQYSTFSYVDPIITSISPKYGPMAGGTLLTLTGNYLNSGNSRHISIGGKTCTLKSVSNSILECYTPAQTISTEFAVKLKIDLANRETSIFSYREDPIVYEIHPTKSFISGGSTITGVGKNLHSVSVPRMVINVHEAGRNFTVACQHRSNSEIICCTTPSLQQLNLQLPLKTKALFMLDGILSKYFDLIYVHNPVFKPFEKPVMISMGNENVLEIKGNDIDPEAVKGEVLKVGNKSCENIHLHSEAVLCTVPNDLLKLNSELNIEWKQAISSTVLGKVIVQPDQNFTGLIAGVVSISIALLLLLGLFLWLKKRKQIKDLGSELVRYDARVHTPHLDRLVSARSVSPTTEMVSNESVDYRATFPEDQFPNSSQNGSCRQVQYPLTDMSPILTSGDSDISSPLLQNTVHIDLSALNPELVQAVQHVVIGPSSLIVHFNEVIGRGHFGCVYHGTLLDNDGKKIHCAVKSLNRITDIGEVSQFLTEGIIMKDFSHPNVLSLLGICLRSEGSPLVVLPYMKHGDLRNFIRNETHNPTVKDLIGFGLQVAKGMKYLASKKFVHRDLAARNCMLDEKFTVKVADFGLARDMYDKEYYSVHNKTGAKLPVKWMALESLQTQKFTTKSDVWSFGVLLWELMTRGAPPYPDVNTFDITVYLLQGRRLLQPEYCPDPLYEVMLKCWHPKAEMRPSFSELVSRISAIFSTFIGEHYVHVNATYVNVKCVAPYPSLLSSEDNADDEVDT
In words: flow cytometry on cynomolgus kidney cells, half-maximal binding at equilibrium. (In general: A flow cytometer gives signals particle by particle.)
Procedure: (§1) The binding affinity of purified antibodies for c-Met expressed on the surface of human A549 lung carcinoma cells and cynomolgus kidney cells was determined by flow cytometry using the BD™ Biosciences LSR flow cytometer according to manufacturer's protocols.
(§2) Cells grown in culture were washed with PBS, briefly incubated in the presence of 0.25% trypsin-EDTA (Invitrogen) and collected. The collected cells were washed in PBS wash buffer containing 0.025% sodium azide and 2% heat inactivated serum, pelleted and 5×10⁵ cells and resuspended in 500 μl of the same buffer. The time required to achieve equilibrium binding at room temperature for each antibody was determined independently to be between six and eight hours by incubating subsaturating concentrations of each antibody with cells. […] Each antibody was incubated with detached cells for 6 to 8 hours at room temperature depending on the time required to reach equilibrium. Cells were washed, resuspended and incubated in 500 μl of a 1:500 dilution of biotinylated mouse anti-human IgG (Jackson Labs) in PBS wash buffer for 45 minutes on ice. Next, cells were washed, resuspended and incubated with 10 μg/ml streptavidin R-phycoerythrin conjugate (Caltag) in 200 μl PBS wash buffer for 15 min on ice protected from light. Cells were washed and signal was detected with a BD Biosciences LSR flow cytometer according to manufacturer's protocols.
The molecule B1 yielded a Kd of 0.168 nM.

For the molecule B2, binding was put at a Kd of 0.0553 nM. This Kd lies about 3-fold lower than the previous one.

B3 yielded a Kd of 0.0486 nM.

In the case of B4, the affinity, expressed as Kd, was 0.393 nM.

B5 displayed a Kd of 0.0733 nM. Against the preceding molecule, the Kd is about 5.4-fold lower.

Another assay has as its target T3, c-Met ECD-Fc (cynomologus) (cynomologus, UniProt A0A2K5UM36 25-932).
T3 construct: also called cynomologus c-Met ECD-Fc
In words: SPR (BIACORE 3000), cynomologus c-Met ECD-Fc immobilized, antibody injected.
Procedure: (§3) Experiments were performed in a BIACORE™ 3000 instrument at 25° C. in Dulbecco's phosphate buffered saline containing 0.0005% Tween-20. Protein concentrations were obtained from sedimentation velocity experiments or by measuring the wavelength of the sample at 280 nm using theoretical extinction coefficients derived from amino acid sequences. For experiments measuring the binding of antibody to immobilized antigens, 220 RU (resonance units) of c-Met ECD-Fc (human or cynomologus) was immobilized on a B1 chip (BIACORE™) by standard direct amine coupling procedures. […] For each concentration, samples were injected in duplicate at 5 μl/min flow for 4 min. The dissociation was monitored for 2000 seconds. The data were fit globally to a simple 1:1 binding model using BIACORE™ Biavel software. In addition, to determine the koff independent of any potential error in the active concentration or fitting model, the dissociation data were fit globally and independently from association data to a simple dissociation model.
Consider B1, for which the koff stood at 9.8e-05 s⁻¹.

B2 displayed a koff of 6.5e-05 s⁻¹.

Molecule B3 registered a koff of 0.00029 s⁻¹.

In turn, B4 returned a koff of 0.00025 s⁻¹.

For B5, the koff amounted to 0.0004 s⁻¹.

The next assay has as its target T1, c-Met ECD/Fc (R&D Systems #358 MT), …. The assay is described as follows: SPR (BIACORE 3000), human c-Met ECD-Fc immobilized, antibody injected, 1:1 model.
Procedure: as §3
B1 registered a Kd of 0.82 nM.

In turn, B2 showed a Kd of 0.33 nM.

As for B3, binding was characterised by a dissociation constant (Kd) of 0.22 nM.

In turn, B4 had a Kd of 0.53 nM.

B5 yielded a dissociation constant (Kd) of 0.2 nM.

Another assay addresses T4, c-Met expressed on the surface of human A549 lung carcinoma cells (human, UniProt P08581 25-1390).
T4 construct: whole, on cells; Used for all assays on cells that carry human c-Met (A549, HepG2, S114); also called human c-Met; c-Met in A549 cells
In words: flow cytometry on human A549 cells, half-maximal binding at equilibrium.
Procedure: as §1, §2
As to B1, binding was characterised by a dissociation constant (Kd) of 0.169 nM.

Consider B2, for which the Kd was 0.0407 nM. Compared with the last molecule, the Kd is about 4.2-fold lower.

B3: the Kd is 0.0393 nM. This Kd and that of the molecule before are within 1.5-fold of each other.

In the case of B4, binding was characterised by a dissociation constant (Kd) of 0.026 nM. This Kd is about 1.5-fold lower than that of the molecule before.

B5 yielded a Kd of 0.056 nM. Compared with the last molecule, the Kd is about 2.2-fold higher.

Another assay concerns the target T1, c-Met ECD/Fc (R&D Systems #358 MT), …. The assay is described as follows: Ligand Binding ELISA (competition): plate coated with c-Met ECD/Fc, antibody concentration varied, then HGF added and bound HGF detected; readout is % inhibition of HGF binding.
Procedure: The wells were washed four times with Tris-buffered saline (pH=8.0) with 0.05% TWEEN-20 (TBS-T). Next, 200 μl/well of blocking buffer (3% bovine serum albumin (BSA) in TBS-T) was added for 60 minutes (min) at room temperature to block non-specific binding sites. The wells were washed 4 times with 300 μl/well TBS-T. Next, 100 μl of Dulbecco's Modified Eagle medium (DMEM) supplemented with 10% FBS containing anti-c-Met antibodies from hybridoma supernatants or purified antibodies in either PBS or 20 mM sodium acetate (pH=5.5), 140 mM NaCl at various concentrations (e.g., 10, 3, 1, 0.3, 0.1, 0.03, and 0.01 μg/ml, based on human IgG2 concentrations in the supernatants) was added to each well. Anti-c-Met antibody was not added to the control wells of the experiment. The samples were mixed for 4 hours (hrs) at room temperature. […] The samples were mixed for 15 minutes at room temperature. […] The solutions were incubated in the wells for 30 min at room temperature. […] The samples were incubated for 30 min at room temperature. The wells were washed 5 times with TBS-T, about 300 μl/well/wash. Next, 100 μl/well of 3,3′,5,5′-tetramethylbenzidine (TMB) peroxidase substrate (Kirkegaard & Perry Laboratories) was added and developed for 1-2 min at room temperature. […] The samples were read at a wavelength of 450 nanometers (nm) on a 96-well plate reader and no background was subtracted.
For the molecule B3, the “IC50 (read off the curve)” value was roughly 0.03 µg/mL.

Take B5: the “IC50 (read off the curve)” value is roughly 0.05 µg/mL.

A further assay concerns the target T5, Insulin-like Growth Factor 1 Receptor (IGF-1R) (UniProt P08069 31-1367, limits assumed).
T5 construct: also called IGF-IR
The assay is described as follows: IGF-1R Cell ELISA: IGF-1R tyrosine phosphorylation after IGF-1, % of control. Indirect readout; the legend says that the antibody does not bind IGF-1R. In general terms: In an ELISA, binding on a coated surface is turned into a signal by an enzyme label.
With B1, the binding result is on record as “no binding (tested: 1000 µg/ml)”.

In the case of B3, the binding result is “no binding (tested: 1000 µg/ml)”.

Another assay addresses T3, c-Met ECD-Fc (cynomologus). The assay is described as follows: SPR (BIACORE 3000), cynomologus c-Met ECD-Fc immobilized, antibody injected, 1:1 model.
Procedure: as §3
Consider B1, for which the Kd was determined as 1.1 nM.

In turn, B2 showed a Kd of 0.32 nM.

For the molecule B3, the Kd turned out to be 0.6 nM. Compared with the last molecule, the Kd is about 1.9-fold higher.

In turn, B4 showed a Kd of 1.22 nM.

B5 returned a Kd of 0.61 nM. This Kd is about 2-fold lower than that of the molecule before.

The next assay concerns the target T1, c-Met ECD/Fc (R&D Systems #358 MT), …. In words: ELISA, inhibition of HGF binding to plate-coated c-Met ECD/Fc.
Procedure: The wells were washed four times with Tris-buffered saline (pH=8.0) with 0.05% TWEEN-20 (TBS-T). Next, 200 μl/well of blocking buffer (3% bovine serum albumin (BSA) in TBS-T) was added for 60 minutes (min) at room temperature to block non-specific binding sites. The wells were washed 4 times with 300 μl/well TBS-T. Next, 100 μl of Dulbecco's Modified Eagle medium (DMEM) supplemented with 10% FBS containing anti-c-Met antibodies from hybridoma supernatants or purified antibodies in either PBS or 20 mM sodium acetate (pH=5.5), 140 mM NaCl at various concentrations (e.g., 10, 3, 1, 0.3, 0.1, 0.03, and 0.01 μg/ml, based on human IgG2 concentrations in the supernatants) was added to each well. Anti-c-Met antibody was not added to the control wells of the experiment. The samples were mixed for 4 hours (hrs) at room temperature. […] The samples were mixed for 15 minutes at room temperature. […] The solutions were incubated in the wells for 30 min at room temperature. […] The samples were incubated for 30 min at room temperature. The wells were washed 5 times with TBS-T, about 300 μl/well/wash. Next, 100 μl/well of 3,3′,5,5′-tetramethylbenzidine (TMB) peroxidase substrate (Kirkegaard & Perry Laboratories) was added and developed for 1-2 min at room temperature. To stop the reaction, 100 μl/well of TMB stop solution (Kirkegaard & Perry Laboratories, #50-85-04) was added. The samples were read at a wavelength of 450 nanometers (nm) on a 96-well plate reader and no background was subtracted.
The molecule B1 showed an IC50 of 0.093 µg/mL.

In the case of B2, the IC50 turned out to be 0.115 µg/mL.

With B3, the IC50 was 0.09 µg/mL. This IC50 and that of the molecule before are within 1.5-fold of each other.

For the molecule B4, the IC50 is 0.11 µg/mL.

The molecule B5 displayed an IC50 of 0.127 µg/mL.

The next assay concerns the target T4, c-Met expressed on the surface of human …. The assay is described as follows: cell-based or functional assay.
For the molecule B1, the “Agonist Activity [maximum fold stimulation]” value is 6.5 fold stimulation (maximum); the “Cellular Met Levels [% loss at 1.0 µg/ml]” value came out at 46.9 % loss at 1.0 µg/ml; the “Cellular pTyr Assay [IC50, µg/ml]” value came out at 0.033 µg/ml; the “Soft Agar Growth [IC50, µg/ml]” value was found to be 5.5 µg/mL. Further, the “Tubular Morphogenesis Agonism [fold stimulation at 50 µg/ml]” value is 2.2 fold stimulation at 50 µg/ml and the “Tubular Morphogenesis Antagonism [% inhibition at 1 µg/ml]” value worked out at 84 % inhibition at 1 µg/ml.

Turning to B2, the “Agonist Activity [maximum fold stimulation]” value was 2.5 fold stimulation (maximum); the “Cellular Met Levels [% loss at 1.0 µg/ml]” value was found to be 11 % loss at 1.0 µg/ml; the “Cellular pTyr Assay [IC50, µg/ml]” value turned out to be 0.143 µg/ml; the “Soft Agar Growth [IC50, µg/ml]” value came to 25 µg/mL. The “Tubular Morphogenesis Agonism [fold stimulation at 50 µg/ml]” value is 8.2 fold stimulation at 50 µg/ml and the “Tubular Morphogenesis Antagonism [% inhibition at 1 µg/ml]” value was found to be 25 % inhibition at 1 µg/ml.

Regarding B3, the “Agonist Activity [maximum fold stimulation]” value is 2.7 fold stimulation (maximum); the “Cellular pTyr Assay [IC50, µg/ml]” value amounted to 0.033 µg/ml; the “Soft Agar Growth [IC50, µg/ml]” value was 8.5 µg/mL.

For the molecule B4, the “Agonist Activity [maximum fold stimulation]” value is 2.3 fold stimulation (maximum); the “Cellular Met Levels [% loss at 1.0 µg/ml]” value worked out at 17.5 % loss at 1.0 µg/ml; the “Cellular pTyr Assay [IC50, µg/ml]” value is 0.086 µg/ml; the “Soft Agar Growth [IC50, µg/ml]” value worked out at 10.5 µg/mL. Besides, the “Tubular Morphogenesis Agonism [fold stimulation at 50 µg/ml]” value is 2.5 fold stimulation at 50 µg/ml and the “Tubular Morphogenesis Antagonism [% inhibition at 1 µg/ml]” value turned out to be 61 % inhibition at 1 µg/ml.

For B5, the “Agonist Activity [maximum fold stimulation]” value was 2.5 fold stimulation (maximum); the “Cellular Met Levels [% loss at 1.0 µg/ml]” value turned out to be 28.5 % loss at 1.0 µg/ml; the “Cellular pTyr Assay [IC50, µg/ml]” value was determined as 0.032 µg/ml.
